B1: Bispecific Protein #9 (bispecific antibody, human IgG1, kappa, L234A L235A)
heavy 1: EVQLVESGGGLVQPGGSLRLSCAASGFTFTDYTMDWVRQAPGKGLEWVADVNPNSGGSIYNQRFKGRFTLSVDRSKNTLYLQMNSLRAEDTAVYYCARNLGPSFYFDYWGQGTLVTVSSASTKGPSVFPLAPSSKSTSGGTAALGCLVKDYFPEPVTVSWNSGALTSGVHTFPAVLQSSGLYSLSSVVTVPSSSLGTQTYICNVNHKPSNTKVDKKVEPKSCDKTHTCPPCPAPEAAGGPSVFLFPPKPKDTLMISRTPEVTCVVVDVSHEDPEVKFNWYVDGVEVHNAKTKPREEQYNSTYRVVSVLTVLHQDWLNGKEYKCKVSNKALPAPIEKTISKAKGQPREPQVYTLPPSRDELTKNQVSLWCLVKGFYPSDIAVEWESYGTEWSNYKTTPPVLDSDGSFFLYSKLTVSKEEWQQGFVFSCSVMHEALHNHYTQKSLSLSPGK
heavy 2: not shown
light: not shown
B2: Bispecific Protein #2 (bispecific antibody, human IgG1, kappa, L234A L235A)
heavy: B1 heavy 1
chain: not shown
light: not shown

Assays:
[1] = biological target: HER2 on HER2^+ tumor cell lines (BT474, OE19, ZR75) (UniProt P04626 23-1255, limits assumed); test: cell-based or functional assay
[2] = biological target: T1, recombinant human TfR apical domain (human, UniProt P02786 198-378); test: SPR (Biacore T200 or 8K); protein captured on anti-human Fab chip, recombinant human TfR apical domain as analyte; 1:1 Langmuir fit
T1 construct: also called transferrin receptor protein 1 apical domain
Experimental: Affinities of the bispecific proteins were measured by SPR using a Biacore T200 or a Biacore 8K. Biacore™ Series S CM5 sensor chips were immobilized with monoclonal mouse anti-human IgG (Fc) antibody for HER2 affinity measurements or mouse anti-human Fab for TfR affinity measurements (human antibody or Fab capture kit from GE Healthcare). Serial 3-fold dilutions of analyte (recombinant HER2 extracellular domain or recombinant TfR apical domain) were injected at a flow rate of 30 μL/min. Each sample was analyzed using a 3-minute association and a 10-minute dissociation for HER2 extracellular domain binding and a 40-second association and a 3-minute dissociation for human TfR apical domain binding. After each injection, the chip was regenerated using 3 M MgCl₂ or 50 mM glycine at pH 2.0. Binding response was corrected by subtracting the RU from a flow cell capturing an irrelevant IgG at similar density. A 1:1 Languir model of simultaneous fitting of kon and koff was used for kinetics analysis. […] The two constructs are described below.

T1 sequence (P02786 198-378 limits assumed): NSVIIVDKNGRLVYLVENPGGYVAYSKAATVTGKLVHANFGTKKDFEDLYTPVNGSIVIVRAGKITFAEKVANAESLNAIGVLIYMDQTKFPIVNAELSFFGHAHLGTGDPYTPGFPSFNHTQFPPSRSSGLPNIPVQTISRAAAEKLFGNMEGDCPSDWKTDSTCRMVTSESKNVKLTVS

Binder | IC50 (nM), BT474 + NRG1 [1] | IC50 (nM), BT-474 [1] | IC50 (nM), OE19 [1] | Min Cell viability (%), BT474 + NRG1 [1] | Min Cell viability (%), BT-474 [1] | Min Cell viability (%), OE19 [1] | Min Cell viability (%), ZR75-30 [1] | Kd [2]
B1 | 3.5 nM | 2.3 nM | 1.1 nM | 37% | 21% | 57% | 87% | 500 nM
B2 | – | – | – | – | – | – | – | 480 nM
